Assay results published in PMC5050335.

Tests used:
[1] = target: T1, Cap0037 (Clostridium acetobutylicum ATCC 824) (UniProt Q97TR1); assay: DNase I footprinting; details: EMSA: 20 ul with 2 ul buffer (stock 200 mM Tris, 500 mM Na glutamate, 100 mM MgCl2, 63.6 mM EDTA, 0.5% NP-40, 50% glycerol), 1 ug poly(dI-dC), 20 min room …
T1 sequence: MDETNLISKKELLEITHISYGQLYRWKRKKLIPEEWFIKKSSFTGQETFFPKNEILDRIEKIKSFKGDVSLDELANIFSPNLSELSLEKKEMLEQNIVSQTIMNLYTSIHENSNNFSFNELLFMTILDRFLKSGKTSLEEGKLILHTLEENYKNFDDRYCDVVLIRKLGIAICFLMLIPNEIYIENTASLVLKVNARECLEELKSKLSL

[2] = target: T1, Cap0037 (Clostridium acetobutylicum ATCC 824); assay: EMSA; details: EMSA: 20 ul with 2 ul buffer (stock 200 mM Tris, 500 mM Na glutamate, 100 mM MgCl2, 63.6 mM EDTA, 0.5% NP-40, 50% glycerol), 1 ug poly(dI-dC), 20 min room …

Row | Sequence | binding [1] | binding [2]
1 | ACAGAATTCCTCAATTCTATTTATGCTCCTATAAAATTTTATAATATAGGAAAACTGCTAAATGTAAATTATACGTTTACATTTAGCAGTTTATTTTAAACCTTCATATTTTTCTAAATATACTGATAATTCCTAAATATATATTATTACGCCAAAATATTAGATACCATTTTGTAAAAGTTGCTATTTACATTTAAATACACAGCTGTTATATTTTTGACCTATGCTTTTTATTGGAT (double strand) [probe sol (sol promoter, footprint)] | binds | 
2 | ACAGAATTCGCAGAATTTTTAGGAAGTGTACTTTTATTTTCGAAAGCTAGTAGAAAAAATTAATATATGGTGTAAAAATTTACTTAAAAAAACAATATGTGTTATAATGTAAATATAAATAAATAGGACTAGAGGCGATTTATAATGTGAAGATAAAGTATGTTAGAAAAGCTAAACATTATTAAATTTAGGAAGGTGACTTTTATGTTAAAGGATGAAGTAATTAAACAAATTAGCACGCCATTAACTTCGCCGAT (double strand) [probe adcStart (adc transcription start)] | binds | 
3 | AGAGAATTCCCATTTTACCTTCTATTCTAACTAAAAGGTATATTGATACAGCTATGGGAAAGCCAACATTGCCTATAAGAGACACTATATCGCCTGAATTCATAAAAACACCTCCACATAAGTTTATATAAATCTATTATGCAGAATTTTTAGGAAGTGTACTTTTATTTTCGAAAGCTAGTAGAAAAAATTAATATATGGTGTAAAAATTTACTTAAAAAAACAATATGTGTTATAATGGAT (double strand) [probe 144 (adc promoter, upstream site)] | binds | 
4 | CTGCATAATATAAAATGCAGATTTTTTTAAACAAATATTGATAAAGATTATCAAATGATATATAATATTGTTAGTTAATAAATTAACAAAGTTTTATATTTTAAATACAATGTTGCATAAGACAAGGTAATTGAACTAATACTATACTAGTAATTGGAGGGGATAATATATGAAAAAGAATACTAAAATTTCAGTAATCGGAGCAGGATTTGT (double strand) [ldhA promoter] |  | no binding
5 | GCATAGGTCAAAAATATAACAGCTGTGTATTTAAATGTAAATAGCAACTTTTACAAAATGGTATCTAATATTTTGGCGTAATAATATATATTTAGGAATTATCAGTATATTTAGAAAAATATGAAGGTTTAAAATAAACTGCTAAATGTAAACGTATAATTTACATTTAGCAGTTTTCCTATATTATAAAATTTTATAGGAGCATAAATAGAATTGAGT (double strand) [sol probe (EMSA)] |  | binds
